Patent US20160108128A1 (CANCER RESEARCH TECHNOLOGY, published 2016)

Assays:
[1] = target: T1, human Jagged 2, full length, on HEK293 cells (human, UniProt Q9Y219 24-1238); test: FACS, 293-JAG2 cells, anti-human-APC
T1 construct: whole, on cells; also called J2; hJ2
Protocol: FIG. 18. […] Samples were analysed by FACS and the mean fluorescence intensities (MFI) were plotted. […] With the exception of J1-65D variants 13-16, all the remaining antibodies effectively bound the human J1 protein.
(§1) HEK293 cells transfected with human J1, J2 or FLAG-EGFP-tagged DSL-EGF3 constructs, B16F10 cells transfected with human DLL4 or mouse J1, and human cancer cell lines, were stained with either purified anti-J1 antibodies at 10 μg/ml diluted in FACS wash buffer (2% FBS in PBS+0.1% sodium azide) or neat hybridoma supernatants followed by a allophycocyanin (APC)-conjugated secondary antibody at 1:200 dilution: for murine primary antibodies, used goat anti-mouse-APC (eBioscience); for humanised and chimeric antibodies used goat anti-human IgG (H+L) secondary antibody (Jackson ImmunoResearch Laboratories). After washing, samples were fixed with 1% paraformaldehyde (in PBS) and acquired with a FACSCalibur. FACS data were analysed with FlowJo software (TreeStar Inc.).

[2] = target: T2, murine Jagged 1, full length, on B16F10 cells (mouse, UniProt Q9QXX0 34-1218); test: FACS, B16F10-mJAG1 cells, anti-human-APC
T2 construct: whole, on cells; GFP co-expressed; also called mJ1; B16F10-mJAG1
Protocol: FIG. 19. […] Samples were analysed by FACS and the mean fluorescence intensities (MFI) were plotted.
as §1

[3] = target: T3, J1 DSL-EGF3 soluble recombinant protein (human Jagged 1 amino acids 185-335) (human, UniProt P78504 185-335); test: affinity to the immunogen J1-DE3; method not stated
T3 construct: biotinylated in the CD46 ELISA; also called J1-DE3; DSL+EGF1-3
T3 sequence (P78504 185-335, form in doubt): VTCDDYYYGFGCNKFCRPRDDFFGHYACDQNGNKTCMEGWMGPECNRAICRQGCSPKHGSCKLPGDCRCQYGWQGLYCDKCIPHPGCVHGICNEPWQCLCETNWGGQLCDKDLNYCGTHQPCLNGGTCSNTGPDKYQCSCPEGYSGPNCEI

T2 sequence (Q9QXX0 34-1218, one chain of several): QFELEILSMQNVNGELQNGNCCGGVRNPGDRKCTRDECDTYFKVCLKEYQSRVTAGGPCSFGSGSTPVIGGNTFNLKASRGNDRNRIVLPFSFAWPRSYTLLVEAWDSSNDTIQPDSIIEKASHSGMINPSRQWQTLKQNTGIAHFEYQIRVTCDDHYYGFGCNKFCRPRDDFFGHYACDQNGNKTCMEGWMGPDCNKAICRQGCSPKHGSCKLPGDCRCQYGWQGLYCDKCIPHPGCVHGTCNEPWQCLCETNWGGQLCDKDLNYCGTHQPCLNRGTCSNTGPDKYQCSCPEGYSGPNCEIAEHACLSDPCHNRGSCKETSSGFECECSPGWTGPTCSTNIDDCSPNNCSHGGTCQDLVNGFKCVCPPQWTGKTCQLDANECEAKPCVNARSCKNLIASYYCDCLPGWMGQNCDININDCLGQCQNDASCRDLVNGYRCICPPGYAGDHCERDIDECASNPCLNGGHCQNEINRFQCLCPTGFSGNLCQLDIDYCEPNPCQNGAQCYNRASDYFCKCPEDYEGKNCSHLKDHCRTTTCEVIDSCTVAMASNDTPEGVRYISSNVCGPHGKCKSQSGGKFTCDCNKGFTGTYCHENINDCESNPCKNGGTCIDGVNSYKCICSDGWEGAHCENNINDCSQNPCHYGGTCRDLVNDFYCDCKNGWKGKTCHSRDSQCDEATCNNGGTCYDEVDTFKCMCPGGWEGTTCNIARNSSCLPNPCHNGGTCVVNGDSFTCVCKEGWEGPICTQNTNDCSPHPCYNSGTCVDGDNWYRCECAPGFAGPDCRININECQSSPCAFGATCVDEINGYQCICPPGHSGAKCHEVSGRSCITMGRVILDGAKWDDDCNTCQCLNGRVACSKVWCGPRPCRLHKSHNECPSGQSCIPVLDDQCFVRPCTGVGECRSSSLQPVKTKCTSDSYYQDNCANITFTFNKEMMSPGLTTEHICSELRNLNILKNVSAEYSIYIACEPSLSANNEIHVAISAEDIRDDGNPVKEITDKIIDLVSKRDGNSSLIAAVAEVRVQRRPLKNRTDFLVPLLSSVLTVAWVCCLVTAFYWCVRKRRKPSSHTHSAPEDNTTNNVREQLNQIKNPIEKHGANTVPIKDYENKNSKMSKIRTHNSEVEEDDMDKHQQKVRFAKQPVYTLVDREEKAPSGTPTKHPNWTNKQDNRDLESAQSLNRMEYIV
T1 sequence (Q9Y219 24-1238): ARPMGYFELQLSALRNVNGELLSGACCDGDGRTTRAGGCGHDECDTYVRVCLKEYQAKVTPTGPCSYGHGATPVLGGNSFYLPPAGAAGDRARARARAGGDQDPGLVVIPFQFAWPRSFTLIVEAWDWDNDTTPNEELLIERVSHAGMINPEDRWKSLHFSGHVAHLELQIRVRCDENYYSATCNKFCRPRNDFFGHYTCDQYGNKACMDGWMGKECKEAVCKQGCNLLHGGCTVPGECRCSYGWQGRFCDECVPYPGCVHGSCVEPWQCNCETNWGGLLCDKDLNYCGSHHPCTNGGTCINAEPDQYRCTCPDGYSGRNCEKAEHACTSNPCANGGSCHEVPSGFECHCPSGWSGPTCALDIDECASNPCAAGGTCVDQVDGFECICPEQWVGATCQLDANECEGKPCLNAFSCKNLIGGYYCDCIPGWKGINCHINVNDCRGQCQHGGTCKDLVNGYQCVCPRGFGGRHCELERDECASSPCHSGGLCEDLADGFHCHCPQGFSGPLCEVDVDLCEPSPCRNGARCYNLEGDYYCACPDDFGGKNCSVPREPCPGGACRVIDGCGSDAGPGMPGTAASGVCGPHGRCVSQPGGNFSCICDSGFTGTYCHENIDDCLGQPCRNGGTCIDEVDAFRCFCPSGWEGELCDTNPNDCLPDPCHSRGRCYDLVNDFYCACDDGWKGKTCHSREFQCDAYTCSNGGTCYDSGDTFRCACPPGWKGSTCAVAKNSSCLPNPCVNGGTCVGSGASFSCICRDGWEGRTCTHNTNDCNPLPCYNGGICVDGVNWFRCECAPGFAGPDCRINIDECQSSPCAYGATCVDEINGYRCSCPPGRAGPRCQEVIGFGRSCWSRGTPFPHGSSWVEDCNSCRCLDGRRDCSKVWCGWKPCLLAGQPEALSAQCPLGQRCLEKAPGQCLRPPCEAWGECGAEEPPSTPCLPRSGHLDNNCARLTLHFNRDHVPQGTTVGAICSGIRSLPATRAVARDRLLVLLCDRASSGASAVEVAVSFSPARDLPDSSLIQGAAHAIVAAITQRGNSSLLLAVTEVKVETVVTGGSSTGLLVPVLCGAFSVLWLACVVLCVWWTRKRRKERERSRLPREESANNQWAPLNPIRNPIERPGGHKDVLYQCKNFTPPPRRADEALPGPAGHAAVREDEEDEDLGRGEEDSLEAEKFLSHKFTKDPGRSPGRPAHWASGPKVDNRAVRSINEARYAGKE

| Binder | binding result [1] | binding result [2] | Kd [3] [nM] |
| --- | --- | --- | --- |
| J1-65D variant 14 (antibody, human IgG1, V domains shown, human IgG1; also called J1-65DV14; V14) VH: QVQLVQSGAELKKPGSSVKVSCKASGYTFTDYEMHWVRQAPGQGLEWMGAIQPGGGGTAYAQKFKGRVTLTADKSTSTAYMELSSLRSEDTAVYYCTRRGYDDYPFAYWGQGTLVTVSS VL: DIQMTQSPSSLSASVGDRVTITCRASQGIHNYLAWYQQKPGKAPKLLIYNAKTLADAVPSRFSGSGSGTDYTLTISSLQPEDFATYYCQQFWSAPWTFGQGTKLEIK | no binding (tested: 10 ug/ml) | no binding (tested: 10 ug/ml) | 58.3 |
| J1-65D variant 13 (antibody, human IgG1, V domains shown, human IgG1; also called J1-65DV13; V13) VH: QVQLVQSGAELKKPGSSVKVSCKASGYTFTDYEMHWVRQAPGQGLEWMGAIQPGGGGTAYNQKFKGRVTLTADKSTSTAYMELSSLRSEDTAVYYCTRRGYDDYPFAYWGQGTLVTVSS VL: DIQMTQSPSSLSASVGDRVTITCRASQGIHNYLAWYQQKPGKAPKLLIYNAKTLADAVPSRFSGSGSGTDYTLTISSLQPEDFATYYCQQFWSAPWTFGQGTKLEIK | no binding (tested: 10 ug/ml) | no binding (tested: 10 ug/ml) | 14.2 |
| J1-65D variant 15 (antibody, human IgG1, V domains shown, human IgG1; also called J1-65DV15; V15) VH: QVQLVQSGAEVKKPGSSVKVSCKASGYTFTDYEMHWVRQAPGQGLEWMGAIQPGGGGTAYAQKFQGRVTLTADKSTSTAYMELSSLRSEDTAVYYCTRRGYDDYPFAYWGQGTLVTVSS VL: DIQMTQSPSSLSASVGDRVTITCRASQGIHNYLAWYQQKPGKAPKLLIYNAKTLADAVPSRFSGSGSGTDYTLTISSLQPEDFATYYCQQFWSAPWTFGQGTKLEIK | no binding (tested: 10 ug/ml) | no binding (tested: 10 ug/ml) | 39.8 |
| J1-65D variant 16 (antibody, human IgG1, V domains shown, human IgG1; also called J1-65DV16; V16) VH: QVQLVQSGAEVKKPGSSVKVSCKASGYTFTDYEMHWVRQAPGQGLEWMGAIQPGGGGTAYAQKFQGRVTITADKSTSTAYMELSSLRSEDTAVYYCTRRGYDDYPFAYWGQGTLVTVSS VL: DIQMTQSPSSLSASVGDRVTITCRASQGIHNYLAWYQQKPGKAPKLLIYNAKTLADAVPSRFSGSGSGTDYTLTISSLQPEDFATYYCQQFWSAPWTFGQGTKLEIK | no binding (tested: 10 ug/ml) | no binding (tested: 10 ug/ml) | 52.1 |
| J1-65D chimeric (antibody, human IgG1, V domains shown, chimeric antibody with unaltered CDRs; vectors encode human IgG1) VH: QVQLQQPGAELVRPGASVKLSCKALGYTFTDYEMHWVKETPVHGLEWIGAIQPGGGGTAYNQKFKGKATLTADKSSSTAYMELSSLTSEDSAVYYCTRRGYDDYPFAYWGQGTLVTVSS VL: DIQLTQSPASLSASVGETVTITCRASGNIHNYLAWYQQKQGKSPQLLVYNAKTLADDIPSRFSGSGSGTQYSLKINSLQPEDFGSYYCQHFWSAPWTFGGGTKLEIK | no binding (tested: 10 ug/ml) | no binding (tested: 10 ug/ml) | – |
| J1-183D variant 10 (antibody, human IgG1, V domains shown, human IgG1; also called J1-183DV10; V10) VH: QVQLVQSGAELKKPGASVKVSCKVSGYAFTDYAIHWIRQAPGQGLEWMGIINTYYGDSKYAQKFQGRVTMTVDTSTSTAYMELSSLRSEDTAVYYCARGYDGFAYWGQGTLVTVSS VL: DIQMTQSPSSLSASVGDRVTITCRTSENIYSYLTWYQQKPGKAPKLLIYNAKILDSGVPSRFSGSGSGTDFTLTISSLQPEDFATYYCQHHYDIPWTFGGGTKLEIKR | no binding (tested: 10 ug/ml) | no binding (tested: 10 ug/ml) | 1.77 |
| J1-183D chimeric (antibody, human IgG1, V domains shown, chimeric antibody with unaltered CDRs; vectors encode human IgG1) VH: QVQLQQPGTELVRPGVSVKISCKVSGYAFTDYAIHWIMQSHAKSLEWIGIINTYYGDSKYNQKFKDKATMTVDKSSNTAYMELARLTSEDSAIYYCARGYDGFAYWGQGTLVTVSS VL: DIQLTQSPASLSASVGETVTFTCRTSENIYSYLTWYQQKQGKSPQLLVYNAKILAAGVPSRFSGYGSGTQFSLKINSLQPEDFGTYYCQHHYDIPWTFGGGTKLEIK | no binding (tested: 10 ug/ml) | no binding (tested: 10 ug/ml) | – |
